In article PMC5071832, “Molecular basis for catalysis and substrate-mediated cellular stabilization of human tryptophan 2,3-dioxygenase” (Scientific Reports, 2016):

Target: the molecule itself
Test: crystal structure; ferrous hTDO (45 mg/ml) with 10 mM L-Trp, under-oil microbatch, anaerobic, 18 °C; precipitant 50 mM sodium citrate pH 5.6, 5% PEG 3350, 2% Tacsimate pH 5; one crystal mounted anaerobically, one soaked overnight in O2-saturated solution; four subunits (A-D) form the tetramer

B1: human tryptophan 2,3-dioxygenase (enzyme)
chain: LPVEGSEEDKSQTGVNRASKGGLIYGNYLHLEKVLNAQELQSETKGNKIHDEHLFIITHQAYELWFKQILWELDSVREIFQNGHVRDERNMLKVVSRMHRVSVILKLLVQQFSILETMTALDFNDFREYLSPASGFQSLQFRLLENKIGVLQNMRVPYNRRHYRDNFKGEENELLLKSEQEKTLLELVEAWLERTPGLEPHGFNFWGKLEKNITRGLEEEFIRIQAKEESEEKEEQVAEFQKQKEVLLSLFDEKRHEHLLSKGERRLSYRALQGALMIYFYREEPRFQVPFQLLTSLMDIDSLMTKWRYNHVCMVHRMLGSKAGTGGSSGYHYLRSTVSDRYKVFVDLFNLSTYLIPRHWIPKMNPTIHKFL
notes: tryptophan 2,3-dioxygenase, human; Heme protein, crystallized in the ferrous state with L-Trp (and O2 or NFK); The construct lacks the N-terminal residues up to at least K17, and K37 lies in a disordered region; also called hTDO; TDO; source: recombinant, purified; oxidized with potassium ferricyanide, G25 column
stoichiometry N: 4
